Assay results reported in patent publication US20250243262A1.

Experiments:
[1] = target: rPcrV protein (recombinant Pseudomonas PcrV) (Pseudomonas aeruginosa); experiment: SPR (Bio-Rad ProteOn XPR36); antibody captured, rPcrV as analyte; table under the sensorgram
[2] = target: rPcrV protein (recombinant Pseudomonas PcrV) (Pseudomonas aeruginosa); experiment: SPR (Bio-Rad ProteOn XPR36); antibody captured by anti-human IgG on GLC chip, rPcrV injected
[3] = target: rPcrV protein (recombinant Pseudomonas PcrV) (Pseudomonas aeruginosa); experiment: SPR (Bio-Rad ProteOn XPR36); antibody captured on GLC sensor chip with anti-human IgG, rPcrV injected at multiple concentrations

Kd [1]: 46 pM
koff [1]: 4.03e-05 s⁻¹
kon [1]: 884000 M⁻¹ s⁻¹
fold increase in Kd over V2L2-GL [2]: 2 to 3 fold
Kd [3]: 45.6 pM
koff [3]: 4.03e-05 s⁻¹
kon [3]: 884000 M⁻¹ s⁻¹
Substance: V2L2-MD (germlined lead optimized V2L2) (antibody)
